The Human Domainome abundance scans (Beltran et al. 2025)

B1: Apoptosis-associated speck-like protein containing a CARD, residues 114 to 194; numbered along this chain, Q9ULZ3 (parent)
chain: FIDQHRAALIARVTNVEWLLDALYGKVLTDEQYQAVRAEPTNPSKMRKLFSFTPAWNWTCKDLLLQALRESQSYLVEDLER

Variants of: B1
Assay: abundance fitness (aPCA) (normalised: wild type 0, dead -1); higher = more abundant; growth selection in yeast, the domain comes from the species named
Settings: Homo sapiens

Abundance fitness, by site and new letter:
P54: A 0.045 | T 0 | Y -0.166 | D 0.132 | K 0.047 | E 0.078 | M -0.292 | F 0.057 | W -0.084 | V -0.197 | I -0.189 | G -0.017 | R -0.026 | H -0.196 | Q -0.064 | S 0.044 | C -0.254 | L -0.328
F52: A -0.732 | Y -0.105 | V -0.649 | K -1 | Q -0.427 | P -0.979 | C -0.966 | I -0.53 | T -1.03 | S -0.948 | N -0.836 | R -0.824 | W -0.696 | G -0.943 | D -0.996 | M -0.454
C60: Q 0.329 | D 0.332 | L -0.456 | M 0.122 | P -0.625 | I -0.473 | R -0.265 | K 0.041 | E 0.285 | H 0.185 | G 0.084 | T 0.009 | W -0.238 | V -0.461 | F -0.162 | S 0.167
P43: M -0.138 | R -0.091 | G -0.27 | W -0.313 | Y -0.593 | K -0.114 | V -0.096 | N -0.241 | I -0.566 | S -0.061 | E 0.07 | F -0.395 | T 0.04 | H -0.221 | L -0.263 | Q 0.065
S44: D 0.091 | N -0.511 | Q 0.061 | T -0.097 | I -0.398 | P -0.868 | F -0.842 | C -0.268 | R -0.064 | K -0.265 | G -0.063 | A 0.116 | Y -1.01 | V -0.947 | L 0.031 | W -0.531 | M 0.024
S51: P -0.796 | I -0.904 | Y -0.843 | E -0.012 | R -0.839 | K -0.96 | F -0.633 | W -0.849 | C -0.429 | A -0.422 | Q -0.205 | M -0.321 | D -0.169 | G -0.587 | L -0.938 | T -0.141 | N -0.806
T59: S -0.04 | K 0 | D -0.007 | E 0.269 | V -0.128 | L -0.149 | A 0.109 | F -0.023 | P -0.44 | G -0.019 | R 0.111 | C -0.135 | W 0.041 | H 0.07 | Y -0.102 | M -0.084 | N 0.018 | I -0.243
F50: Q -0.871 | S -0.822 | Y 0.015 | E -0.799 | N -0.775 | K -1.02 | V -0.536 | I -0.418 | L 0.182 | W -0.693 | D -1.06 | P -0.607 | M 0.113 | H -0.948 | R -0.81 | C -0.937
K48: V -0.469 | T -0.635 | N -0.802 | W -0.35 | F -0.585 | E -0.963 | S -0.891 | C -0.667 | A -0.745 | Q -0.674 | P -0.71 | I -0.779 | R -0.185 | M -0.221 | L -0.347 | D -0.745 | G -0.877 | H -0.655 | Y -1.05
R47: L -0.319 | G -0.62 | N -0.214 | A 0.013 | M -0.166 | F -0.786 | Y -0.872 | H -0.452 | W -0.497 | Q -0.051 | D -0.517 | T -0.04 | P -0.814 | V -0.155 | C -0.139 | E 0.037 | S -0.197 | I -0.254 | K -0.008
W58: Y 0.203 | K 0.19 | R 0.234 | G 0.205 | T 0.319 | A 0.357 | Q 0.174 | S 0.306 | M 0.167 | D 0.453 | E 0.376 | C 0.047 | N 0.105 | I -0.217 | P 0.145 | F 0.105 | H 0.289 | V 0.174
D62: Q -0.037 | W -0.609 | F -0.195 | P -0.768 | G -0.194 | C -0.265 | E 0.047 | K -0.088 | M -0.295 | R -0.2 | Y -0.644 | S -0.168 | I -0.581 | T -0.423 | V -0.646 | L -0.43 | A -0.083 | N -0.207
N57: P -0.233 | T -0.106 | M -0.399 | D 0.092 | V -0.431 | H -0.279 | W -0.468 | K -0.492 | S 0.018 | R -0.731 | I -0.311 | L -0.178 | E -0.32 | C -0.269 | Y -0.852
K61: G -0.601 | E -0.337 | V -0.649 | F 0.22 | Q -0.618 | W -0.003 | H 0.028 | I -0.968 | D -0.534 | C -0.379 | R -0.437 | M -0.388 | P -0.806 | N -0.52 | Y 0.119 | L -0.901 | A -0.332
L49: E -0.979 | M -0.888 | G -0.79 | D -0.914 | A -0.93 | H -0.664 | Y -0.846 | I -0.444 | P -0.73 | N -0.209 | F -0.811 | V -0.837 | S -0.798
L63: D -0.777 | C -0.44 | A -0.185
A55: H -0.005 | P -0.325 | V -0.416 | E 0.087 | M -0.162 | T -0.061 | Q -0.062 | G 0.082 | S 0.107 | D -0.061 | F -0.36 | I -0.286 | K 0.016 | Y -0.077 | N 0.181
W56: H -0.371 | F -0.506 | D -0.626 | K -0.684 | C -0.957 | N -0.83 | S -0.813 | Y -1.01 | T -0.74 | I -0.434 | V -0.694 | M -0.108 | E -1.13 | A -0.899 | L -0.568 | R -0.574 | G -0.838 | Q -0.598
K45: T -0.764 | V -0.609 | D -1 | C -0.887 | P -0.803 | Q -0.695 | H -1.06 | G -0.768 | R -0.317 | M -0.34 | S -0.273 | W -0.852 | A -0.615 | L -0.918 | E -0.846
M46: G -0.949 | C -1.02 | S -0.933 | F -0.807 | I -0.778 | T -0.77 | L -0.298 | Y -0.707 | E -0.831 | Q -0.717 | P -0.542 | W -0.696 | D -1.03 | A -0.679 | V -0.353 | R -0.653
T53: K -0.957 | D -0.855 | L 0.071 | V 0.072 | E -0.126 | C -0.347 | G -0.663 | R -0.466 | I -0.055 | F -0.342 | H -0.394 | P -1.03 | M 0.015 | Y 0.11
